# In patent publication US20190338018A1:
# B1: mAb mIhfB4NTHI Fab (murine, clone 12E6.F8.D12.D5) (Fab, V domains shown)
# VH: EVQLQESGAELVRSGASVKLSCTASGFNIKDYYMHWVKQRPEQGLEWIGWIDPENDDTEYVPKFQGKASMTADTSSNTAYLQLSSLTSEDTAVYYCTELGAYWGQGTLV
# VL: not shown
# B2: mAb mIhfB4NTHI (murine monoclonal IgG, clone 12E6.F8.D12.D5) (antibody, V domains shown)
# VH: B1 VH
# VL: not shown
# Target: DNABII protein tips
# Assay: cell-based or functional assay
binder,measurement,value
B1,"Reduction in Biomass (in vitro vs NTHI biofilms, 171 nM, COMSTAT2, relative to nonspecific murine IgG1)",77%
same,"reduction in biomass of NTHI 86-028NP biofilm in vitro, relative to mAb IgG1 Fab control",74%
B2,"Reduction in Biomass (in vitro vs NTHI biofilms, 171 nM, COMSTAT2, relative to nonspecific murine IgG1)",71%
